Data published in article PMC314469, “Protein Interaction Networks by Proteome Peptide Scanning” (PLoS Biology, 2004).
One block for each binder: values may come before it.

Columns and labels:
[1] = molecular target: T1, RVS167 SH3 domain (Saccharomyces cerevisiae); test: SPR; details: modification not given
T1 chain: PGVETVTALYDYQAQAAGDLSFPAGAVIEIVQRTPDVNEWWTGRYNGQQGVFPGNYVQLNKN

[2] = molecular target: T2, BOI2 SH3 domain (Saccharomyces cerevisiae); test: SPR; details: modification not given
T2 chain: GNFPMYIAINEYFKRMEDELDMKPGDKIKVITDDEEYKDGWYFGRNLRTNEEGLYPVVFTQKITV

[3] = molecular target: T3, YSC84 SH3 domain (Saccharomyces cerevisiae); test: SPR; details: modification not given
T3 chain: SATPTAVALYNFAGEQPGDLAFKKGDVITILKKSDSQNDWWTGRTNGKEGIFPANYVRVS

[4] = molecular target: T4, Boi1 SH3 (BOI1_YEAST), P38041; test: SPOT array
T4 chain: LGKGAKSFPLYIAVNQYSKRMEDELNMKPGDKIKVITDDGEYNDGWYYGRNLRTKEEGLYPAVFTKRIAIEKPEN

[5] = molecular target: Sho1 SH3 (SHO1_YEAST), P40073; test: SPOT array
Chain of Sho1 SH3 (SHO1_YEAST), P40073 (P40073 295-366): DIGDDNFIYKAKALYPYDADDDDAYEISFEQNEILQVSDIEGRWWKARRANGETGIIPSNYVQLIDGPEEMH

[6] = molecular target: T5, Abp1 SH3 (ABP1_YEAST), P15891; test: SPOT array
T5 chain: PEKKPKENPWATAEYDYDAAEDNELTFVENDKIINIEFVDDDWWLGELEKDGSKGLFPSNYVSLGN

[7] = molecular target: T6, Rvs167 SH3 (RV167_YEAST), P39743; test: SPOT array
T6 chain: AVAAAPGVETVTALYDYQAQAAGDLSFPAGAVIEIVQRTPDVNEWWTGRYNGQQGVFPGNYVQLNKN

[8] = molecular target: T7, Boi2 SH3 (BOI2_YEAST), P39969; test: SPOT array
T7 chain: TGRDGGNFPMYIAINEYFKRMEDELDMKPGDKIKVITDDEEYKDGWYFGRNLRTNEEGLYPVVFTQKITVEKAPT

[9] = molecular target: T8, Yfr024 SH3 (LSB3_YEAST), P43603; test: SPOT array
T8 chain: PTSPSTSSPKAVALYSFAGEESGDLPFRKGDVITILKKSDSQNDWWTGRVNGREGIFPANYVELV

[10] = molecular target: T9, Yhr016c SH3 (YSC84_YEAST), P32793; test: SPOT array
T9 chain: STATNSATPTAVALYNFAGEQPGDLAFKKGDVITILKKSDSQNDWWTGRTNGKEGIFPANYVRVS

[11] = molecular target: T10, Myo5 SH3 (MYO5_YEAST), Q04439; test: SPOT array
T10 chain: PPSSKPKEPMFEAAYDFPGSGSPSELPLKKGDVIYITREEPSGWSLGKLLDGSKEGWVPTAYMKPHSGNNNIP

[12] = molecular target: T11, YFR024C SH3 domain (Saccharomyces cerevisiae); test: SPR; details: modification not given
T11 chain: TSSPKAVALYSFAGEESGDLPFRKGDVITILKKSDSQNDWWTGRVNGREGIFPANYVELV

[13] = molecular target: T12, GST-Abp1 SH3 domain (S. cerevisiae), P15891; test: SPR; details: modification not given
T12 chain: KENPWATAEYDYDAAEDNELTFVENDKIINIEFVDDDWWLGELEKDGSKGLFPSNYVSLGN

Kd [1]: 39 µM
Kd [2]: > 100 µM
Kd [3]: 13 µM
Binder: RAVPILPPRNNVEP

Kd [1]: 32 µM
Kd [2]: > 100 µM
Binder: PQQNRPLPQLPNRN

normalised SPOT signal, Boehringer light units (BLU); mean over the file's lines of this peptide [4]: 55.3
normalised SPOT signal, Boehringer light units (BLU); mean over the file's lines of this peptide [5]: 78.9
normalised SPOT signal, Boehringer light units (BLU); mean over the file's lines of this peptide [6]: 124
normalised SPOT signal, Boehringer light units (BLU); mean over the file's lines of this peptide [7]: 78.4
normalised SPOT signal, Boehringer light units (BLU); mean over the file's lines of this peptide [8]: 45.6
normalised SPOT signal, Boehringer light units (BLU); mean over the file's lines of this peptide [9]: 62.9
normalised SPOT signal, Boehringer light units (BLU); mean over the file's lines of this peptide [10]: 6.5
normalised SPOT signal, Boehringer light units (BLU); mean over the file's lines of this peptide [11]: 253
Binder: LKDPKSFPPPPLKP [YBR108W 80-93]

normalised SPOT signal, Boehringer light units (BLU); mean over the file's lines of this peptide [4]: 22.8
normalised SPOT signal, Boehringer light units (BLU); mean over the file's lines of this peptide [5]: 37.8
normalised SPOT signal, Boehringer light units (BLU); mean over the file's lines of this peptide [6]: 224
normalised SPOT signal, Boehringer light units (BLU); mean over the file's lines of this peptide [7]: 50.4
normalised SPOT signal, Boehringer light units (BLU); mean over the file's lines of this peptide [8]: 15.3
normalised SPOT signal, Boehringer light units (BLU); mean over the file's lines of this peptide [9]: 19.6
normalised SPOT signal, Boehringer light units (BLU); mean over the file's lines of this peptide [10]: 9.2
normalised SPOT signal, Boehringer light units (BLU); mean over the file's lines of this peptide [11]: 159
Binder: LQESKTVPQSPKKP [YOR058C 189-202]

Kd [2]: > 100 µM
Binder: RGPPPLPPRANVQP

Kd [1]: > 100 µM
Kd [2]: > 100 µM
Kd [3]: > 100 µM
Kd [12]: > 100 µM
Binder: DIKTRSVPKIPSIE [DEM1 peptide …]

Kd [2]: > 100 µM
Binder: NAPERAVPILPPRN

Kd [1]: 39 µM
Kd [2]: > 100 µM
Kd [3]: 16 µM
Kd [13]: > 100 µM
Kd [12]: 22 µM
Binder: NQPDLPPRKIMIP [YBR239C peptide …]

Kd [13]: > 100 µM
Binder: ASTKPEKPPVVKKP [INP52 peptide …]

Kd [2]: > 100 µM
Binder: GTTNRGPPPLPPRA

Kd [2]: > 100 µM
Kd [3]: 9.6 µM
Kd [13]: > 100 µM
Kd [12]: 8.9 µM
Binder: RPLPQLPNRNNRPV
